This assay concerns the target Rac1 (endogenous in HUVEC lysate) (human, UniProt P63000 1-189). In words: co-immunoprecipitation with anti-FGD5 antibody from lysates of FGD5 overexpressing HUVECs, western blot. As for the experimental part: GTP-RhoA, Rac1, and cdc42 activation levels were measured using the G-lisa detection system (Tebu-Bio, The Netherlands). For FGD5-protein complex co-immunoprecipitation, magnetic beads (Dynabeads, Invitrogen, The Netherlands) were coated and cross-linked with 2.5 μg anti-FGD5 antibody (Bioscience, The Netherlands) before immunoprecipitation overnight at 4° C. with protein cell lysates of transfected HUVECs (50 μg total protein of a volume of 100 μl incubation buffer). Beads were washed and the protein samples were eluted with eluation buffer (Invitrogen, The Netherlands) before analysis by western blot.

B1: FYVE, RhoGEF and PH domain-containing 5 (FGD5), human, overexpressed in HUVECs by adenovirus (Ad-FGD5) (other)
chain: MFRGPKPPIAPKPRLTAPNEWRASVYLNDSLNKCSNGRLPCVDRGLDEGPRSIPKCSESETDEDYIVVPRVPLREDEPKDEGSVGNKALVSPESSAEEEEEREEGGEACGLEGTGAGEDSVAPAAPGAGALSREGEEGTDLALEDEGEGCADEPGTLEQVSRSEEEEKLVQPHRECSLEDSGPWAGEGVFQSDLLLPHIHGEDQEPPDTPGEAEEDDEEGCASTDPAGADEGSGPDRPTEDMGQDAEDTSEEPPEKEELAGVQEAETATDCPEVLEEGCEEATGVTGGEQVDLSEPPDHEKKTNQEVAAATLEDHAQDESAEESCQIVPFENDCMEDFVTSLTGSPYEFFPTESTSFCSESCSPLSESAKGLESEQAPKLGLRAEENPMVGALCGQCGSLQGGAAEGPAAPDVVVVLEEEALDDALANPYVMGVGLPGQAAPGEGGQAASDALGGYGSKEELNCEAEGGLVPADRKNTSTRVRPHSGKVAGYVPETVPEETGPEAGSSAPGIGGAAEEVGKTLLSLEGKPLEASRALPAKPRAFTLYPRSFSVEGREIPVSVYQEPEGSGLDDHRIKRKEDNLSLSCVIGSSGSFSQRNHLPSSGTSTPSSMVDIPPPFDLACITKKPITKSSPSLLIESDSPDKYKKKKSSFKRFLALTFKKKTENKLHVDVNVSSSRSSSESSYHGPSRILEVDRRSLSNSPQLKSRTGKLRASESPSSLIFYRDGKRKGVPFSRTVSRVESFEDRSRPPFLPLPLTKPRSISFPSADTSDYENIPAMNSDYENIQIPPRRPARAGAFTKLFEDQSRALSTANENDGYVDMSSFNAFESKQQSADQDAESAYTEPYKVCPISSAAPKEDLTSDEEQRSSEEEDSASRDPSVTHKVEGQSRALVIAQELLSSEKAYVEMLQHLNLDFHGAVMRALDDMDHEGRDTLAREELRQGLSELPAIHDLHQGILEELEERLSNWESQQKVADVFLAREQGFDHHATHILQFDRYLGLLSENCLHSPRLAAAVREFEQSVQGGSQTAKHRLLRVVQRLFQYQVLLTDYLNNLCPDSAEYDNTQGALSLISKVTDRANDSMEQGENLQKLVHIEHSVRGQGDLLQPGREFLKEGTLMKVTGKNRRPRHLFLMNDVLLYTYPQKDGKYRLKNTLAVANMKVSRPVMEKVPYALKIETSESCLMLSASSCAERDEWYGCLSRALPEDYKAQALAAFHHSVEIRERLGVSLGERPPTLVPVTHVMMCMNCGCDFSLTLRRHHCHACGKIVCRNCSRNKYPLKYLKDRMAKVCDGCFGELKKRGRAVPGLMRERPVSMSFPLSSPRFSGSAFSSVFQSINPSTFKKQKKVPSALTEVAASGEGSAISGYLSRCKRGKRHWKKLWFVIKGKVLYTYMASEDKVALESMPLLGFTIAPEKEEGSSEVGPIFHLYHKKTLFYSFKAEDTNSAQRWIEAMEDASVL
notes: Guanine-nucleotide exchange factor; Made with the pAd/CMV/V5 gateway system; also called Ad-FGD5 transgene product
Turning to B1, the binding result is reported as “no binding”.

These data come from patent US20110123534A1 (ERASMUS UNIVERSITY MEDICAL CENTER ROTTERDAM, published 2011).
